In the supplement of paper PMC12764529:
± gives the half width of the 95% confidence interval.

Legend:
[1] = folding stability dG unfold from trypsin proteolysis; higher = more stable
Method in brief: (§1)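 Unfolding free energy was derived, per protease or combined, against a sequence-predicted unfolded-state K50 and a shared folded-state K50, starting from K50 inferred by Bayesian fitting of sequencing counts. Digestion with trypsin and chymotrypsin was carried out on designed mini-proteins under 80 residues without cysteine in a PA-tagged cDNA display construct. Only designs with AlphaFold2 dimer inter-PAE above 15 were kept.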

[2] = folding stability dG unfold from chymotrypsin proteolysis; higher = more stable
Method in brief: as §1

[3] = folding stability dG unfold (combined trypsin and chymotrypsin); higher = more stable
Method in brief: as §1

Row | Sequence | folding stability dG unfold [1] [kcal/mol] | folding stability dG unfold [2] [kcal/mol] | folding stability dG unfold [3] [kcal/mol]
1 | SAGGSAGGKSYVRLEVYRRNPETDEWEKIRTEVLETDAASGEEVRRRALERVPEDYLVKVELFPSAGGSAGG [r6_623_TrMRF] | 2.01 ± 0.046 | 2.872 ± 0.028 | 2.62 ± 0.062
2 | SAGGSALKIPSGKKYTVVVKDPNKPVEYVADVIERHPDSILIEVKDPNSSKTKKITVPTNVITIDLSAGGSA [r15_381_JUSTAS] | -0.095 ± 0.15 | 0.684 ± 0.16 | 0.464 ± 0.19
3 | SAGGSAGGSAGNYMVRLEIEMPENGRKVEWMVPEDDPEEILEKFPWLKEHGMEVKIEVFPSAGGSAGGSAGG [r17_176_TrROS] | 0.236 ± 0.037 | 0.638 ± 0.08 | 0.498 ± 0.1
4 | SAGGMKVTEEPDATIVEVPLPDRKLTLTITRDGPGVTVTVTEDGEVLKTIPTDGPAEEAIAAAIAALSAGGS [r8_276_JUSTAS] | 1.04 ± 0.016 | 1.43 ± 0.059 | 1.29 ± 0.07
5 | SAMNLRFPLSTEALAKLLENLTPDQTLELRVRIGDRWVRVRLEIHRIERKEDELRVEVTLEVEPLRPEDSAG [r14_335_TrMRF] | 3.33 ± 0.095 | 3.34 ± 0.06 | 3.35 ± 0.19
6 | SAMILLIKIENKNDGKEFIIEITPNKITIYDKKTGKKYEITVDGNTITIKINGKTYKAKIKEVIPEEELSAG [r14_208_TrROS_Hall] | 3.23 ± 0.2 | 3.86 ± 0.096 | 3.54 ± 0.49
7 | MRRFEFPETGLVVPVVPSPDGRYRVRIYRPGGELVLEVELPDLPIPEGSDAEIRIPLKDLPPDLVTFVEPES [r1_263_TrMRF] | 0.819 ± 0.054 | 1.46 ± 0.09 | 1.21 ± 0.11
8 | SAGDAVRIPIRFPNGMQIYSIEINPDENTIKIKIYDPNGYRKFEWTFPVKDPNGDPKLVGKIKFYMRPPSAG [r5_434_TrROS] | 2.01 ± 0.069 | 2.61 ± 0.16 | 2.31 ± 0.23
9 | SMTIKLPSKDFKLETLPDGTIKLTVKEPDGTVVTYTFPKGDKITKIEKITPDTIKLTFEKKPRLNPEILLSA [r9_501_JUSTAS] | 2.16 ± 0.097 | 3.65 ± 0.053 | 3.07 ± 0.22
10 | SALLVAPDGTVVKPETIKTTVETFTTYFLPPGKPVTRKGVKEYTVTVTTTTYTTPNPTLTVETTVTTVGSAG [r14_291_JUSTAS] | -0.0458 ± 0.11 | 0.667 ± 0.2 | 0.392 ± 0.2
11 | SAGGSAGGMFIALVTITLPNGEKITDLAFFESPEKIYVLNLKDGKWSEPKVEDIKVVPLEELLFSAGGSAGG [r6_558_TrMRF] | 1.92 ± 0.12 | 2.73 ± 0.069 | 2.41 ± 0.18
12 | SAGMPLSVEEAIALLRKEIEAIPVPPSVTEIEFEITIPADGRPVKITVKVNEGKLEITVTVGDKPIKIGSAG [r14_199_JUSTAS] | 1.79 ± 0.14 | 2.3 ± 0.07 | 2.17 ± 0.11
13 | SAGGSAGGSMPFKIDVEVERHPEDNMYQVEITFPGNREIPIMVDDPSDPEKAKNIAKEFAKQLSAGGSAGGS [r12_1012_TrROS] | 0.13 ± 0.082 | -0.648 ± 0.7 | -0.0883 ± 0.13
14 | SAGGSADENKKPMYFIMVKIEIKFGGKDHKIEIMIPLDNVEKLAKNIAEELGMEIKDVTVSLYPIDSAGGSA [r15_535_TrROS] | 2.79 ± 0.13 | 4.18 ± 0.12 | 3.77 ± 0.15
15 | SAGGSAGGSEEKKIKIKIKIERDPENPNTYRITIEDEETGERYELEITVPPPKPKVFFFPKKKSAGGSAGGS [r12_985_TrROS_Hall] | 2.24 ± 0.023 | 2.19 ± 0.12 | 2.18 ± 0.17
16 | SMKPGDWKWIMFRFPDAENMEITIPIPLPPGYRVWFFFMNGERHEIPAGQEIKFKMPPGEPMWMMIWIWKSA [r9_79_TrROS] | 3.66 ± 0.11 | 4.7 ± 0.1 | 4.06 ± 0.26
17 | SAGGMRLVFVTETPEEAEEIARELAELFPDFELEAEVREEEVLVEVPETGEVKRRPVYVLVIELRPKSAGGS [r16_828_TrMRF] | 4.29 ± 0.098 | 4.42 ± 0.059 | 4.41 ± 0.079
18 | SAGGSAGGSAGMVKLRFEVKFKIKLLGEGETNEVVEVDVKVEFEVTLPPFKVRPDGSLLESAGGSAGGSAGG [r11_558_TrMRF] | 3.2 ± 0.24 | 4.39 ± 0.15 | 4.03 ± 0.21
19 | SAGGSAGGSAMKYKVTVTTTPPDGTTTTTPTVVDFKSKEEIEEYVKKKAPKDTKVEVEIEPESAGGSAGGSA [r18_60_JUSTAS] | -0.228 ± 0.085 | 0.0584 ± 0.22 | 0.0447 ± 0.19
20 | SAGGKVFTPEHLEELLKNVPADDPNATLTVTVEVPVVVLPTTDGDDNPLPAAAAPATVTLPITVLPASAGGS [r16_708_TrMRF] | 0.0702 ± 0.072 | 1.2 ± 0.018 | 0.837 ± 0.07
21 | SAGGSAGGELELELTVRLPNGLEVRIRARVKFDEETNEWTITEIEIEIRPLPPPPVLDKDGKLVSAGGSAGG [r6_506_TrROS_Hall] | 3.24 ± 0.19 | 3.04 ± 0.31 | 2.93 ± 0.47

Row | Sequence | folding stability dG unfold [1] [kcal/mol] | folding stability dG unfold [2] [kcal/mol] | folding stability dG unfold [3] [kcal/mol]
22 | SAMKTYTLPNATITVETLPGDNTIVVTVTDPESGKTTTTTVSLDDPSLTIENIIARIEEQIKAGKPVSLSAG [r14_157_JUSTAS] | 2.33 ± 0.1 | 2.16 ± 0.054 | 2.16 ± 0.14
23 | SAEKKTVRVVLEITLPPGLKPGDTITVKIEVDGKVYEAKILRVEEVPPGQTVRIVLELPAEDVKITIEPSAG [r14_554_TrROS_Hall] | 3.21 ± 0.079 | 4.06 ± 0.08 | 3.81 ± 0.071
24 | SAGGSAGGSAGMKEGEKPKVKIEIDVLIEVDGKLYRVRAEAEINEDGEITIKVEIEELPDSAGGSAGGSAGG [r11_551_TrROS_Hall] | 2.4 ± 0.11 | 3.65 ± 0.11 | 3.3 ± 0.12
25 | SAGGEMTAEERARRLAERLAEELERRTGRKVEVVSVEVEYDPETDEVTVRIEIRLEDGSTLTIELRLSAGGS [r8_372_TrROS_Hall] | 4.86 ± 0.26 | 3.41 ± 0.11 | 4.33 ± 0.27
26 | SKPETVTFPFNIPLKDMPLEDIKEEAKEWLRNFGYKVEKPEITPEMLKLLKDMPPGQEIPITITIKVEPKSA [r9_1163_TrROS] | 0.301 ± 0.12 | 1.08 ± 0.18 | 0.828 ± 0.085
27 | SAGGSEAIKEALELAKENPGKTVEVEIKNEDGSIYKIKIEVKEGKVVKVEVEKVKKEEVLSEEEKKSAGGSA [r2_263_TrROS_Hall] | 1.01 ± 0.1 | 2.49 ± 0.043 | 2.12 ± 0.1
28 | SAGGSAGGSAGGKPKYKIVEIKYDKETKTVTLKIKLENGETVEITVPPGTSLEDILKALSAGGSAGGSAGGS [r10_984_TrROS_Hall] | 3.57 ± 0.098 | 3.9 ± 0.061 | 3.83 ± 0.055
29 | SAGGEVIELKIKFKTPEQREKLKEIAKKLNAEVVEEKDGEVIIRFKTPEQAERALKEAEKLGAEVELSAGGS [r16_88_TrROS_Hall] | 4.29 ± 0.26 | 4.47 ± 0.097 | 4.48 ± 0.17
30 | SAGGSIPADTVATLTLPDRDLAVRVELVDGTPRYLVTGPDGTPVGTLTPEEFAAFVAALPADARLDLRSAGG [r13_657_JUSTAS] | 0.7 ± 0.032 | 1.32 ± 0.081 | 1.15 ± 0.068
31 | SAGMKVIEIDVPVSKIEEVKEELEAEAKEKGLNIKFEKLEKLPGNKYKMIVTVTDPTSNEKTIYNINILSAG [r5_41_JUSTAS] | 3.83 ± 0.27 | 4.08 ± 0.051 | 4.06 ± 0.12
32 | SAGGSAGGSKKKKKKKKKIKVLIRNKKTGKWFEAEAEVVDGELYIKVNGKIYKIKGPVEIELVSAGGSAGGS [r12_683_TrROS_Hall] | 2.38 ± 0.043 | 3.686 ± 0.019 | 3.3 ± 0.048
33 | SAGGSAGGSMVTIPTGTEEEVEKVIAELEKKGLKPKKVEKEGNKVTVEFPDGTKVELIIEPGKSAGGSAGGS [r20_93_JUSTAS] | 1.06 ± 0.058 | 2.36 ± 0.14 | 1.95 ± 0.099
34 | SAGGSAGMPKVRIPIEEDPENGNILIRVKMPNSGREHEYHIPGNLKEAKENFEDHFGFDITDVEIWSAGGSA [r15_101_TrROS] | 0.364 ± 0.23 | -0.984 ± 0.58 | -0.0816 ± 0.38
35 | SAGKKTIMIFIPGNMPLDTLKSALRNLPPNVEIHIMYPGQMQTITYDPDDIEIELPPGFPNFYIMIEVPSAG [r5_373_TrROS] | 2.68 ± 0.13 | 2.646 ± 0.017 | 2.72 ± 0.057
36 | SAGGSAGGSAGNMEVIEEVEFTFPGLGVKISVSIFKTDGGIVIMIDIEIPMPPEDRKKFKSAGGSAGGSAGG [r17_431_TrROS] | 0.857 ± 0.097 | 1.61 ± 0.18 | 1.25 ± 0.15
37 | SAGGSAGGSAGGSMYTLLSTENRPDPNSSKPVTTKTYKLPDGSTVVVTEYPDSVEEKPLVSAGGSAGGSAGG [r7_479_JUSTAS] | -0.00111 ± 0.087 | -0.122 ± 0.63 | 0.182 ± 0.25
38 | SAGGAPSSFSTSSDPDGTQLLVVTEPGSGKPRTVRIPPGLNEAVTIPPSRSVSSVELVRVSPASPALLSAGG [r13_122_JUSTAS] | -1.16 ± 0.46 | -0.734 ± 0.18 | -0.803 ± 0.14
39 | SAGGSAMTPVTLEITSEEELEAKIEELAPPGRTVTINVTSTTEKTRVEDDVTRDYTVVTANVTFPPSAGGSA [r15_95_JUSTAS] | 0.181 ± 0.1 | 0.573 ± 0.04 | 0.399 ± 0.12
40 | SAGGEIERDPNGWIRMTYTLPGFGYKIEITFRVPDNGMMQIEDIDIEPIPPVPPPPPPKYDPNGEWKYSAGG [r13_646_TrROS] | 1.64 ± 0.08 | 2.25 ± 0.041 | 2.02 ± 0.17
41 | SAGGMPKTIEVEIVFKRDEEGKIGIDKIKKAAEELAKKFPEVKKVEVDIEEDPETDYVKVKVKVEVESAGGS [r8_258_TrMRF] | 1.75 ± 0.059 | 2.34 ± 0.032 | 2.1 ± 0.14
42 | SAGGSAGGSAGGMMRIRIKIYNVETGEWKEIEIEVPESVKEITLEIELPEGWRIVEIEVESAGGSAGGSAGG [r7_687_TrROS_Hall] | 5.39 ± 0.52 | 5.22 ± 0.087 | 5.32 ± 0.14
